± gives the half width of the 95% confidence interval.
Tests used:
[1] = folding stability dG unfold (combined trypsin and chymotrypsin); higher = more stable
How it was run: (§1)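 K50 was inferred by Bayesian fitting of sequencing counts obtained after protease digestion of designed mini-proteins. Unfolding free energy was derived by comparison with a sequence-predicted unfolded-state K50 and a shared folded-state K50, for each protease or both combined. The mini-proteins were under 80 residues, had no cysteine, were carried in a PA-tagged cDNA display construct, and were kept only if AlphaFold2 dimer inter-PAE exceeded 15.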

[2] = folding stability dG unfold from trypsin proteolysis; higher = more stable
How it was run: as §1

[3] = folding stability dG unfold from chymotrypsin proteolysis; higher = more stable
How it was run: as §1

Sequence | folding stability dG unfold [1] | folding stability dG unfold [2] | folding stability dG unfold [3]
SAGGSAGGSAGGWRTVWIRMPPGQSPEQAVDEIKDHFPPGEPIEVEYHPNDGFFRVKIPSAGGSAGGSAGGS [r10_163_TrROS] | 0.668 ± 0.077 kcal/mol | 0.654 ± 0.08 kcal/mol | 0.546 ± 0.22 kcal/mol
SAGGSAGGSAGGWYVQIKFPNNPIYISAEEIRDNPEVLKELEDEGYPIKNIEVMKPGEGSAGGSAGGSAGGS [r10_396_TrROS] | 0.241 ± 0.14 kcal/mol | 0.526 ± 0.082 kcal/mol | -0.5 ± 0.29 kcal/mol
SAGGSAGGSAGGYSAIIIFPTEFDNKLYYAAVELESPSEELHEGDIKSVILAPLNTPILSAGGSAGGSAGGS [r10_730_TrMRF] | 1.64 ± 0.046 kcal/mol | 1.93 ± 0.096 kcal/mol | 1.41 ± 0.043 kcal/mol
SAGGSAGGSAGIEAVVKELEELGYEVEATPEPDGSVVIEVTLKNGEKLTVRVGPFGGVEASAGGSAGGSAGG [r17_503_TrMRF] | 2.24 ± 0.13 kcal/mol | 2.21 ± 0.14 kcal/mol | 2.2 ± 0.071 kcal/mol
SAGGSAGGSAGIEKTKDGVYKITIYNPSTGKKTEIYVPSSAPYVAGPVVLELVKNKAIIESAGGSAGGSAGG [r11_538_TrMRF] | 0.47 ± 0.055 kcal/mol | -0.296 ± 0.074 kcal/mol | 0.802 ± 0.11 kcal/mol
SAGGSAGGSAGIIVRLPDGGWLIIDITMTRKYPPPDGKPKKVEFEFTIIISPKSGKIRIVSAGGSAGGSAGG [r11_271_TrROS] | 3.01 ± 0.26 kcal/mol | 2.94 ± 0.2 kcal/mol | 3.21 ± 0.15 kcal/mol
SAGGSAGGSAGIKTESLEEALEYVKKTFPPGTKVEIVVEGDGKPIKITVTVLENGEIKVESAGGSAGGSAGG [r17_69_TrMRF] | 3.58 ± 0.12 kcal/mol | 3.97 ± 0.16 kcal/mol | 3.24 ± 0.036 kcal/mol
SAGGSAGGSAGIRIKAFPGWKIVDIEPNPPGTIIIRYPNWVFQIRIRPNGEIEIRIVPLDSAGGSAGGSAGG [r11_612_TrROS] | 3.49 ± 0.083 kcal/mol | 3.09 ± 0.093 kcal/mol | 3.64 ± 0.055 kcal/mol
SAGGSAGGSAGIRIYWDPENGWYRVKYPDPDGKPVDEHPMPPDQLPEFLQAGNIEVEPWPSAGGSAGGSAGG [r11_159_TrROS] | 1 ± 0.095 kcal/mol | 0.759 ± 0.035 kcal/mol | 1.27 ± 0.081 kcal/mol
SAGGSAGGSAGITIRDPDNGMWIQIEKTPDMFKVEIEMPGNGKKVEFTFPPGQSLDDLKISAGGSAGGSAGG [r11_772_TrROS] | 0.571 ± 0.12 kcal/mol | 0.508 ± 0.037 kcal/mol | 0.473 ± 0.085 kcal/mol
SAGGSAGGSAGKAVFIRELENGAIVLAVPFPDSVRLRVFPLTPGGEVESVEEFTLAPEELSAGGSAGGSAGG [r11_88_TrMRF] | 0.591 ± 0.08 kcal/mol | -0.0256 ± 0.16 kcal/mol | 0.842 ± 0.088 kcal/mol
SAGGSAGGSAGKEIKVETEENPNGQHPVKIEIYDGGNPRPIEFPVDSPEDAEDWAKELLKSAGGSAGGSAGG [r11_560_TrROS] | -0.0496 ± 0.079 kcal/mol | -0.595 ± 0.074 kcal/mol | 0.148 ± 0.031 kcal/mol
SAGGSAGGSAGKEKEIIIKVKVTKDKNGKYKIDIEELKKLFPNVKITEIKDNYIKIKVKKSAGGSAGGSAGG [r11_771_TrROS_Hall] | 1.75 ± 0.31 kcal/mol | 1.63 ± 0.1 kcal/mol | 2.11 ± 0.13 kcal/mol
SAGGSAGGSAGKHTFNIKDIEIKEVVPSNNYYVVRIEMTFPDGKEHKFTFYFPPGDPITLSAGGSAGGSAGG [r11_211_TrROS] | 2.53 ± 0.14 kcal/mol | 1.97 ± 0.055 kcal/mol | 2.87 ± 0.085 kcal/mol
SAGGSAGGSAGKIEVTYNKENNTFTVKIVNKKTKKVITIKVKAKSKEDALKKVKELLEKLSAGGSAGGSAGG [r17_386_TrROS_Hall] | 3.11 ± 0.19 kcal/mol | 2.79 ± 0.17 kcal/mol | 3.32 ± 0.078 kcal/mol
SAGGSAGGSAGKIIEELKKKGYKVEVIKDKKTKKYYVKITVTDKKGNKKTITIPLKDIKPSAGGSAGGSAGG [r17_311_TrROS_Hall] | 3.71 ± 0.35 kcal/mol | 2.8 ± 0.23 kcal/mol | 4 ± 0.21 kcal/mol
SAGGSAGGSAGKIIFERDEDGYLRAIVYDPKTKEVYVRRFKVKDGKITEVETERINLKDLSAGGSAGGSAGG [r11_167_TrROS_Hall] | 2.21 ± 0.1 kcal/mol | 2.06 ± 0.049 kcal/mol | 2.37 ± 0.078 kcal/mol
SAGGSAGGSAGKIKITEIHFMPNGMVVVEIEFEDPDGETFNLTVVFRFDPNGKIRDIHIMSAGGSAGGSAGG [r11_709_TrROS] | 4.22 ± 0.17 kcal/mol | 3.35 ± 0.15 kcal/mol | 4.35 ± 0.07 kcal/mol
SAGGSAGGSAGKIKIVKDEKTGEYKLVVYDKNGKKVKTITLSKEELEKNPELLKKLLEELSAGGSAGGSAGG [r17_496_TrROS_Hall] | 4.51 ± 0.17 kcal/mol | 3.52 ± 0.27 kcal/mol | 4.56 ± 0.15 kcal/mol
SAGGSAGGSAGKIVILVEPSVEELKAAAEALPGAKVTLEEVEVDGRKYLLATIELPPELLSAGGSAGGSAGG [r17_542_TrROS_Hall] | 2.23 ± 0.07 kcal/mol | 2.17 ± 0.074 kcal/mol | 2.27 ± 0.033 kcal/mol
SAGGSAGGSAGKKIIIKVKPNMTPEEIAKKLAEELGVEVEIKKVKKLKNGELYIEIEIKPSAGGSAGGSAGG [r17_222_TrROS_Hall] | 2.82 ± 0.3 kcal/mol | 3.09 ± 0.17 kcal/mol | 2.48 ± 0.19 kcal/mol
SAGGSAGGSAGKKIKVRIKVKDPETNEYYEIEIEAETEEEALEALKKLFPNVKKVEIVPASAGGSAGGSAGG [r11_25_TrROS_Hall] | 3.18 ± 0.15 kcal/mol | 3.26 ± 0.11 kcal/mol | 2.69 ± 0.11 kcal/mol
SAGGSAGGSAGKKKIIILINENMKEEEIVDYIKKKYGKNVKIEEIIPISPNIKIIKVIIDSAGGSAGGSAGG [r11_580_TrMRF] | 4.02 ± 0.14 kcal/mol | 3.96 ± 0.12 kcal/mol | 4.01 ± 0.17 kcal/mol
SAGGSAGGSAGKKKIVFLVEDPEEALKTLTFPKDANIEIEKIEVKPLPNGLYEVVIYLKNSAGGSAGGSAGG [r11_150_TrMRF] | 4.29 ± 0.24 kcal/mol | 2.76 ± 0.081 kcal/mol | 4.59 ± 0.1 kcal/mol
SAGGSAGGSAGKKKKKKPKKVKSVKIKITIKNKNGEKKEITVTFNKDGKLTLEEIKKLLKSAGGSAGGSAGG [r11_759_TrROS_Hall] | 2.28 ± 0.21 kcal/mol | 2.22 ± 0.056 kcal/mol | 2.51 ± 0.12 kcal/mol
SAGGSAGGSAGKKKLVIEQRPDGLVRIRLPNGKVLEVSREELEELAKELGIDKVEIYPVPSAGGSAGGSAGG [r11_312_TrROS_Hall] | 1.83 ± 0.05 kcal/mol | 1.58 ± 0.025 kcal/mol | 2.067 ± 0.019 kcal/mol

Reference: the supplement of paper PMC12764529
